Drawing on patent US20130108641A1 (Sanofi, published 2013), this text covers Kd, EC50 and IC50 for six molecules.

For test [1], the target named is T1, human GITR expressed on cells (human, UniProt Q9Y5U5 26-241).
T1 construct: whole, on cells; Used for HEK293 transfectants and for PHA-stimulated human PBMCs; also called hGITR; cell surface hGITR
T1 sequence (looked up): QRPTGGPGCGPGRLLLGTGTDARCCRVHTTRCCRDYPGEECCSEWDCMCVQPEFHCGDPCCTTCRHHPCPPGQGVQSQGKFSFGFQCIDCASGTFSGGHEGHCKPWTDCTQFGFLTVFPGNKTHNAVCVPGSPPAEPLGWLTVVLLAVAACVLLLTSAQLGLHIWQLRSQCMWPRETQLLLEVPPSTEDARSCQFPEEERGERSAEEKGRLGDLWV
As to the kind of experiment: FACS on HEK293-Trex-hGITR cells, Michaelis binding plot. The method, then: (§1) Wells were washed 3 times with 200 μl/well of PBS+1% BSA by centrifugation at 350 g for 5 minutes. Then, 100 μL of a 1:400 dilution of Alexa 647-conjugated, anti-human IgG-Fc (Invitrogen) was added to each well. Following incubation at 4° C. for 45 minutes in the dark, the plate was washed with PBS-1% BSA three times. Cells were resuspended in 150 μL of PBS-1% BSA and analyzed using GUAVA instrument.

In test [2] the target is T1, human GITR expressed on cells. As to the kind of experiment: FACS (Guava) on HEK293-Trex-hGITR cells, Alexa 647 anti-human IgG-Fc detection; fitted half-maximal concentration in the legend box, unit from the x axis 'mAb concentrations (µg/mL)'. The method, then:
as §1

Test [3] concerns the target T2, human GITR-Fc fusion protein (human, UniProt Q9Y5U5 26-162).
T2 construct: extracellular domain; also called hGITR-Fc; recombinant human GITR-Fc; not shown: Fc part
T2 sequence (looked up): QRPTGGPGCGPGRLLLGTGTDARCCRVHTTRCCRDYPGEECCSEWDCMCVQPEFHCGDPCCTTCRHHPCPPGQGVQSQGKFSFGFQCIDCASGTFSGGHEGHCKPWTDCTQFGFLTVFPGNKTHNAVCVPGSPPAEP
As to the kind of experiment: competition ELISA, GITRL coated, GITR 0.25 µg/mL pre-incubated with antibody. The method, then:
Ninety-six well plates were coated with GITR-Ligand proteins at 0.5 μg/well at 4° C. overnight. Wells were washed with washing buffer (PBS pH 7.4+0.05 Tween 20) and blocked with 200 μL of blocking buffer (PBS pH 7.4+0.05% Tween 20+1% BSA) for 1 hour at room temperature. […] Plates were washed four times with washing buffer and GITR-Ligand-bound recombinant human GITR-Fc was detected with the use of peroxidase-conjugated goat, anti-human IgG-Fc (Sigma), followed by incubation with the TMB substrate (Interchim ref UP664780).

Test [4] deals with T3, human GITR protein (form not stated) (human, UniProt Q9Y5U5 26-161, limits assumed).
T3 construct: also called hGITR
T3 sequence (looked up): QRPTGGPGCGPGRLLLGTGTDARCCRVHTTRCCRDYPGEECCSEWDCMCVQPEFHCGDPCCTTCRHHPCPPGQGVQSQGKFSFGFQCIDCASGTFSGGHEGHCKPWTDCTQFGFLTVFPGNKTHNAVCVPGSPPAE
As to the kind of experiment: ELISA, GITR protein coated. The method, then:
Ninety-six well plates were coated with GITR protein at 0.25 μg/well at 4° C., overnight. Wells were washed with washing buffer (PBS pH 7.4+0.05 Tween 20) and blocked with 200 μL of blocking buffer (PBS pH 7.4+0.05% Tween 20+1% BSA) for 1 hour at room temperature. […] The plate was incubated at room temperature for 1 h and washed five times with PBS-T. Then, 100 μL of a 1:50 000 dilution of peroxidase-conjugated goat anti-human IgG-Fc (Sigma)) was added to each well. Following incubation at room temperature for 1 h in the dark, the plate was washed with PBS-T, five times. Antibody binding was visualized by adding 100 μL/well of TMB-H₂O₂ substrate buffer (Interchim) The reaction proceeded at room temperature for 10 min and was read using an ELISA plate reader at a wavelength of 450 nm.

B1: humanized anti-GITR antibody 2155 variant HC4-LC3 (antibody, V domains shown)
VH: EVQLVESGGGLIQPGGSLKLSCAASGFTISSYAMSWVRQAPGKGLEWVAIISTGGSTYYADSVKGRFTISRDNSKNTLYLQMNSLRAEDTAVYYCARVGGYYDSMDHWGQGTSVT
VL: DIVLTQSPASLAVSPGQRATITCRASETVDNYGISFMNWFQQKPGQPPKLLIYAASNQGSGVPARFSGSGSGTDFTLTINPVEADDTANYYCQQSKEVPWTFGQGTKVE
notes: also called LC3 and HC4
B1 returned an equilibrium dissociation constant (Kd) in test [1] of 4.52 nM. The EC50 was found to be 0.259 µg/mL in test [2] and 1.08 nM in test [4]. In test [3], this molecule showed an IC50 of 1.21 nM.

B2: chimeric 2155 antibody (antibody, V domains shown)
VH: EVKLVESGGGLVKPGGSLKLSCGASGFTISSYAMSWVRQSPEKRLEWVAIISTGGSTYYPDSVRGRFTISRDNARNSLYLQMSSLRSEDTAMYYCARVGGYYDSMDHWGQGTSVTVSS
VL: not shown
As for B2, binding in test [1] was characterised by a dissociation constant (Kd) of 5.55 nM. For the same molecule, the EC50 in test [2] was 0.337 µg/mL; in test [4], 0.97 nM. For the same molecule, the 50% inhibitory concentration (IC50) in test [3] was determined as 1.13 nM.

B3: humanized anti-GITR antibody 2155 variant HC2-LC1 (antibody, V domains shown)
VH: QVTLVESGGGLVKPGGSLTLSCGASGFTISSYAMSWVRQSPGKALEWVAIISTGGSTYYPDSVRGRFTISRDNAKNSLYLTMSSLDSVDTATYYCARVGGYYDSMDHWGQGTSVT
VL: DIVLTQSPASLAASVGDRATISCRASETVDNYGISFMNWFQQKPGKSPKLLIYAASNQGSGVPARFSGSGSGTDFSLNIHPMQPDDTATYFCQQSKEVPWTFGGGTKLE
notes: also called LC1 and HC2
B3: binding in test [1] was put at a Kd of 4.68 nM. Moreover, the EC50 in test [2] amounted to 0.278 µg/mL; in test [4], 1.34 nM. In test [3], this molecule showed an IC50 of 0.93 nM.

B4: humanized anti-GITR antibody 2155 variant HC3b-LC2a (antibody, V domains shown)
VH: QVTLKESGGGLVKPGGSLTLSCGASGFTISSYAMSWVRQSPGKALEWVAIISTGGSTYYPDKFRGRFTISRDNAKNSLYLTMSSLRSEDTATYYCARVGGYYDSMDHWGQGTSVT
VL: DIVLTQSPASLSASVGDRATISCRASETVDNYGISFMNWFQQKPGQSPKLLIYAASNQGSGVPARFSGSGSGTDFSLTISPMQPDDTATYYCQQSKEVPWTFGGGTKLE
notes: also called LC2a and HC3b
In turn, B4 showed an equilibrium dissociation constant (Kd) in test [1] of 4.96 nM. Also, the figures for the concentration giving a half-maximal response (EC50) in test [2] and in test [4] were 0.238 µg/mL and 1.24 nM, respectively. The molecule also displayed an IC50 in test [3] of 1.15 nM.

B5: humanized anti-GITR antibody 2155 variant HC1-LC1 (antibody, V domains shown)
VH: QVTLVESGGGLVKPGGSLTLSCGASGFTISSYAMSWVRQSPGKALEWVAIISTGGSTYYPDSVRGRFTISRDNAKNSLYLTMSSLDSVDTAMYYCARVGGYYDSMDHWGQGTSVT
VL: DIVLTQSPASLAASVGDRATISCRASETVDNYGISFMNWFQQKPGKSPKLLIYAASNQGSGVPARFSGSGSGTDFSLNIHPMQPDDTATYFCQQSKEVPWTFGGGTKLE
notes: also called LC1 and HC1
Turning to B5, binding in test [1] was put at a Kd of 4.03 nM. In addition, the concentration for a half-maximal effect (EC50) came to 0.206 µg/mL in test [2] and 0.91 nM in test [4]. The same molecule displayed a half-inhibitory concentration (IC50) in test [3] of 1.08 nM.

B6: humanized anti-GITR antibody 2155 variant HC3a-LC2a (antibody, V domains shown)
VH: QVTLVESGGGLVKPGGSLTLSCGASGFTISSYAMSWVRQSPGKALEWVAIISTGGSTYYPDKFRGRFTISRDNAKNSLYLTMSSLRSEDTATYYCARVGGYYDSMDHWGQGTSVT
VL: DIVLTQSPASLSASVGDRATISCRASETVDNYGISFMNWFQQKPGQSPKLLIYAASNQGSGVPARFSGSGSGTDFSLTISPMQPDDTATYYCQQSKEVPWTFGGGTKLE
notes: also called LC2a and HC3a
In turn, B6 returned a Kd in test [1] of 5.51 nM. The 50% effective concentration (EC50) in test [2] is 0.333 µg/mL; in test [4] it was 2.17 nM. Further, the IC50 in test [3] was determined as 1.26 nM.
